# Measured values as given in PMC10698143, “Phosphorylation of MIF by PIP4K2a is necessary for cilia biogenesis” (Cell Death & Disease, 2023).
# T1: PIP4K2a on the HuProt human protein chip (human, UniProt P48426 1-406)
# T1 construct: Phosphatidylinositol-5-phosphate 4-kinase type 2 alpha, human recombinant protein of the HuProt chip; construct not described; source: human recombinant protein, highly purified, spotted on the HuProt human protein chip
# T1 sequence (looked up): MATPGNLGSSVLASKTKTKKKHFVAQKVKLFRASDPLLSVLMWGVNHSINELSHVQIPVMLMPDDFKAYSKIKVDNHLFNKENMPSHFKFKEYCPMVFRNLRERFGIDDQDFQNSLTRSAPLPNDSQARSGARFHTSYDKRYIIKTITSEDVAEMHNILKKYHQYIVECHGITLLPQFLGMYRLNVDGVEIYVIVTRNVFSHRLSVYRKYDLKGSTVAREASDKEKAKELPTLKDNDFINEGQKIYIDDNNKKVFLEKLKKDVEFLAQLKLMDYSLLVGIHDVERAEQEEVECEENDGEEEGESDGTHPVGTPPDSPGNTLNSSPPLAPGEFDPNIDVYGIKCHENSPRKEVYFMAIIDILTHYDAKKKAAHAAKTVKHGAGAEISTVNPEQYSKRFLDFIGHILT
# Biological target: T1, PIP4K2a on the HuProt human protein chip
# Assay: peptide or protein array; HuProt human protein chip (>21,000 purified human recombinant proteins on nitrocellulose-coated slides), renatured in 50 mM Tris-HCl pH 8.0, 100 mM NaCl, 1 mM DTT, 0.3% Tween 20, blocked with 5% BSA; probed with 50 nM purified human MIF for 1 h; detected with rabbit anti-MIF and Cy3 anti-rabbit IgG; hit if SNR of both duplicates over 1.2
# Settings: both partners purified
binder,measurement,value
"recombinant human MIF (rhMIF) (natural protein, UniProt P14174 1-115, looked up, No catalogue number printed; also called purified human MIF protein; human recombinant MIF protein; source: bought: R&D Systems) MPMFIVNTNVPRASVPDGFLSELTQQLAQATGKPPQYIAVHVVPDQLMAFGGSSEPCALCSLHSIGKIGGAQNRSYSKLLCGLLAERLRISPDRVYINYYDMNAANVGWNNSTFA",binding result,binds
